Measurements taken from US20230025600A1, “TREATMENT OF CANCERS WITH ANTIBODY DRUG CONJUGATES (ADC) THAT BIND TO 191P4D12 PROTEINS” (AGENSYS, INC., priority 2019, published 2023).

How the values were obtained:
[1] = Immunogenicity (anti-therapeutic antibody, ATA); type: in vivo, human; settings: 365 patients tested
From the text: As with all therapeutic proteins, there is a potential for immunogenicity. The detection of antibody formation is highly dependent on the sensitivity and specificity of the assay. Additionally, the observed incidence of antibody (including neutralizing antibody) positivity in an assay may be influenced by several factors including assay methodology, sample handling, timing of sample collection, concomitant medications, and underlying disease. For these reasons, comparison of the incidence of antibodies in the studies described below with the incidence of antibodies in other studies or other enfortumab vedotin products may be misleading.
A total of 365 patients were tested for immunogenicity to PADCEV; 4 patients (1%) were confirmed to be transiently positive for anti-therapeutic antibody (ATA), and 1 patient (0.3%) was confirmed to be persistently positive for ATA at any post-baseline time point. No impact of ATA on efficacy, safety and pharmacokinetics was observed.

[2] = Population pharmacokinetic analysis in patients; type: in vivo, human
From the text: Population pharmacokinetic analysis included data from 369 patients based on three Phase 1 studies and one Phase 2 study. Enfortumab vedotin-ejfv pharmacokinetics were characterized after single and multiple doses in patients with locally advanced or metastatic urothelial carcinoma and other solid tumors.
Steady-state concentrations of ADC and MMAE were reached after 1 treatment cycle.

[3] = Exposure-response analysis; type: in vivo, human
191P4D12 = target: T1, 191P4D12 (Homo sapiens, UniProt Q96NY8); assay: Comparability: analytical and biological characterization studies; settings: binding affinity to 191P4D12, in vitro cytotoxicity, in vivo antitumor activity
T1 sequence (Q96NY8 32-510): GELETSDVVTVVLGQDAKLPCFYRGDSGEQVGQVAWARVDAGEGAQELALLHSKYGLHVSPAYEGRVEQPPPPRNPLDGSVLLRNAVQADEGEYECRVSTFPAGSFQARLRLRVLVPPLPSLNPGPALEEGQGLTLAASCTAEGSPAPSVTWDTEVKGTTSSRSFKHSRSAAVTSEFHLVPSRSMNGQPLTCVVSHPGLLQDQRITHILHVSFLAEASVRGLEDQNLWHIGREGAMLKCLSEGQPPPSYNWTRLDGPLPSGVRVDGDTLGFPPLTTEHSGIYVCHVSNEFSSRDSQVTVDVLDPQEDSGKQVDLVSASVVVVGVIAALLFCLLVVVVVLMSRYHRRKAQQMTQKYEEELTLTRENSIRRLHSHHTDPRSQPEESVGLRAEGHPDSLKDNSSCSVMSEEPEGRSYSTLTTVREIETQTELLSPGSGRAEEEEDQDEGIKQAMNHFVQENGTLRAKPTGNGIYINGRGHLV
From the text: As described above and in U.S. Pat. No. 8,637,642, AGS-22M6E is an ADC derived from a murine hybridoma cell line. Enfortumab vedotin is the a Chinese hamster ovary (CHO) cell line-derived equivalent of AGS-22M6E ADC and is an exemplary product used for human treatment. Enfortumab vedotin has the same amino acid sequence, linker and cytotoxic drug as AGS-22M6E. The comparability between enfortumab vedotin and AGS-22M6E was confirmed through extensive analytical and biological characterization studies, such as binding affinity to 191P4D12, in vitro cytotoxicity, and in vivo antitumor activity.

[4] = Pooled safety in 310 patients (EV-201, EV-101, EV-102); type: in vivo, human
Protocol: Because clinical trials are conducted under widely varying conditions, adverse reaction rates observed in the clinical trials of a drug cannot be directly compared to rates in the clinical trials of another drug and may not reflect the rates observed in practice. The data in the WARNINGS AND PRECAUTIONS section reflect exposure to PADCEV as a single agent at 1.25 mg/kg in 310 patients in EV-201, EV-101 (NCT02091999), and EV-102 ([…]). Among 310 patients receiving PADCEV, 30% were exposed for ≥6 months and 8% were exposed for ≥12 months.

[5] = ADC, after first treatment cycle of 1.25 mg/kg, Days 1, 8 and 15
[6] = 310 patients in clinical trials
[7] = 310 patients in clinical trials, 1.25 mg/kg

enfortumab vedotin-ejfv [PADCEV]
impact of ATA on efficacy, safety and pharmacokinetics [1]: No impact | patients persistently positive for ATA at any post-baseline time point ([1]; 1 patient): 0.3% | patients transiently positive for anti-therapeutic antibody (ATA) ([1]; 4 patients): 1% | exposure (AUC) in mild, moderate or severe renal impairment ([2]; 1.25 mg/kg, compared to normal renal function): No significant differences | AUC0-28 d, Mean (±SD) [2, 5]: 111 (38) μg · d/mL | Cmax, Mean (±SD) [2, 5]: 28 (6.8) μg/mL | accumulation following repeat administration ([2]; patients): Minimal accumulation | estimated mean steady-state volume of distribution ([2]; patients): 11 L | mean clearance (CL) ([2]; patients): 0.10 L/h | steady-state concentrations reached after ([2]; patients): 1 treatment cycle | time of peak ADC concentrations ([2]; patients, intravenous infusion): near the end of intravenous infusion | elimination half-life ([2]; patients, multi-exponential declines): 81.6 h | differences in pharmacokinetics based on age (24 to 87 years), sex, or race/ethnicity ([2]; population pharmacokinetic analysis): no clinically significant differences | association of higher exposure ([3]; e.g. Grade >=2 peripheral neuropathy, Grade >=3 hyperglycemia): higher incidence of some adverse reactions | association of lower exposure ([3]; exposure-response analysis): lower efficacy | comparability between enfortumab vedotin and AGS-22M6E (191P4D12): confirmed | blurred vision ([4]; 310 patients): 14% | dry eye symptoms ([4]; 310 patients): 19% | extravasation reactions with secondary cellulitis, bullae, or exfoliation ([4]; 310 patients): One | median time to onset to symptomatic vision disorder ([4]; 310 patients): 3.1 months | ocular disorders ([4]; 310 patients): 46% | skin and soft tissue reactions secondary to extravasation ([4]; 310 patients): 1.3% | Grade 3-4 skin reactions [4, 6]: 10% | maculopapular rash [4, 6]: 26% | pruritus [4, 6]: 30% | skin reactions [4, 6]: 54% | peripheral neuropathy Grade 3 reactions [4, 7]: 2% | peripheral neuropathy, predominantly sensory [4, 7]: 49% | differences in safety or effectiveness between patients 65 years or older and younger patients ([4]; 310 patients, 187 were 65 years or older, 80 were 75 years or older): No overall differences | erythema, swelling, increased temperature and pain worsened until, after extravasation ([4]; infusion site extravasation): 2 to 7 days | extravasation reactions resolved within, of peak ([4]; infusion site extravasation): 1-4 weeks | incidence of Grade 3-4 hyperglycemia with higher body mass index and higher baseline A1C ([4]; patients treated with PADCEV): increased consistently
